One molecule from patent US5763284A, “Methods for peptide synthesis and purification” (Dade International Inc., priority 1995, dated 1998) can be followed below.

The subject of one assay is TA1 antibody. The assay is described as follows: BIAcore surface plasmon resonance binding of PenI:C9 muteins to immobilized TA1. The settings on record: 30 μg/mL injected; relative response of wild type PenI:C9 set to 100%. The arrangement: species or system mouse. The text has this: In order to analyze the different binding of the different PenI:C9 muteins to the TA1 antibody (TA1 was raised from a mouse that had been immunized with F1.2-C9 KLH by standard procedures; F1.2-C9 is the purified factor Xa cleavage product of prothrombin), a biosensor system using surface plasmon resonance detection (BIAcore, Pharmacia Biosensor) has been used. This system records the binding of the antigen to the immobilized TA1 in real time.
TA1 has been chemically immobilized onto the carboxymethylated dextran matrix of the sensor chip (CM5) using the amine coupling kit and the method provided by the manufacturer (Pharmacia Biosensor). For this purpose TA1 was diluted to 57 μg/mL in 10 mM Na-acetate buffer pH4. After activation of the sensor chip with 30 μl of a 1:1 mixture of 11.5 mg/mL N-hydroxysuccinimide (NHS) and 75 mg/ml N-ethyl-N'-(dimethylaminopropyl) carbodiimide (EDC) 5 μL of the TA1 solution was injected at a flow rate of 3 μL/min. […]
Each PenI:C9 and the native PenI protein was injected according to this program and a relative response in RU which represent the amount of penI:C9 mutein bound, was calculated by subtracting the RU of report point 1. from report point 2. Percent of binding was then calculated by setting the relative response of the wild type to 100%. […]
On the technique in general: SPR reads the build-up and loss of mass on a sensor chip optically.

The subject of the next assay is D011 cells. In words: Loading of A20 APC and activation of D011 T cells, IL-2 release ELISA. Format: cell-based, murine. The settings on record: DO11 and A20 cells, 24 hours. As to the method: The efficacy of a fusion polypeptide of the invention to load APCs and activate T cells was tested. A penI:Ova fusion polypeptide (i.e., a fusion polypeptide containing the penI protein linked to an Ova target peptide) was employed as well as other materials. Three independent experiments were performed utilizing A20 APC and the D011 T cell […] cell line. D011 cells are specifically responsive to Ova loaded major histocompability complex class II (MHCII) molecules presented by A20 APCs. A20 cells were loaded with 5 μg purified penI:Ova fusion polypeptide or 5 μg synthetic Ova peptide (positive control synthesized by Mimetics, Chiron Corp.) for 1 hour. 1×10^5 D011 cells were added and incubated with the loaded A20 cells for 24 hours. The degree of activation of D011 cells was determined by the release of Interleukin 2 (IL-2) into the culture medium. After 24 hours of incubation supernatants were collected and analyzed in an ELISA format for IL-2 (using two anti-IL2 antibodies from Pharmacia).
The following Table summarizes the results of the three experiments and includes several negative controls. One of these controls is a PenI:Ova fusion protein containing the hen egg lysozyme (HEL) peptide preceded by the Factor Xa cleavage recognition site IEGRNLCNIPCSALLSS (SEQ ID NO: 55) and therefore should not stimulate D011 cells.

Some results are limits rather than exact numbers.

B1: PenI: penI repressor protein of Bacillus licheniformis without fusion peptide; negative control (protein, UniProt P06555 1-128, looked up)
Penicillinase repressor: MKKIPQISDAELEVMKVIWKHSSINTNEVIKELSKTSTWSPKTIQTMLLRLIKKGALNHHKEGRVFVYTPNIDESDYIEVKSHSFLNRFYNGTLNSMVLNFLENDQLSGEEINELYQILEEHKNRKKE
Consider B1, for which the “Percent of binding to TA1” value with TA1 antibody is reported as < 5%. Besides, the IL-2 release with D011 cells (Experiment 1), with D011 cells (Experiment 2) and in the assay with D011 cells (Experiment 3) was 0 pg/mL throughout.
